Laboratory results: the DeepSol protein solubility set

Experiment: soluble on expression in E. coli; label from the status in PepcDB or PDB records

Row | Sequence | soluble on expression in E. coli
1 | MIGMAEVKLINIWKRFGDVTAVKDLSLEIKDGEFLVLLGPSGCGKTTTLRMIAGLEEPTRGQIYIEDNLVADPEKGVFVPPKERDVAMVFQSYALYPHMTVYDNIAFPLKLRKVPKQEIDKRVREVAEMLGLTELLNRKPRELSGGQRQRVALGRAIIRRPKVFLMDEPLSNLDAKLRVKMRAELKKLQRQLGVTTIYVTHDQVEAMTMGDRIAVMNKGELQQVGTPDEVYYKPVNTFVAGFIGSPPMNFLDATITDDGFLDFGEFKLKLLQDQFEVLEEENMVGKEVIFGIRPEDVHDASFTHIDVPEENTVKATVDIIENLGGEKIVHLRRGNISFTAKFPKESKVREGDEVSVVFDMKKIHIFRKDTEKAIF | soluble
2 | MIGRERMTVASQRLIAERTYELTLSGRLVQEMRQPGQFVHVKVAASADPLLRRPLSLCHIDHKQGQCTIIYRQEGKGTALLAQKQPGDTVDVLGPLGNGFPLEAAPADSRALLVGGGIGVPPLYELAKQLTKRGVKVVSVLGFQTKAAVFYEEEFAAFGETHVATDDGSHGTAGRVTDVIEARSLEFDVLYACGPKPMLRALAERFPNRPVYLSLEERMGCGVGACFACVCHVPGSETAYKKVCSDGPVFRAGEVVL | soluble
3 | MIHPARPLRGQAALEARDPNARLEEAVGLAVALDLNVVEALVAPLRVVTPATLFGKGKVEEFAAICEVEHIDVAVFDDQLTPIQQRNLEKALKVKVVDRTGLILEIFARRARTREGRLQVELARLDYERSRLVRTWTHLERQRGGTGSTGGPGETQIEIDRRLIAGTILKLKKELEEVRRTRTLHRSARKKVPYPTVALVGYTNAGKSTLFNRLTEAEVLAKDMLFATLDPTLRTVKLPDGRPAIMSDTVGFISDLPHELVEAFRATLEEVQEADVVLHVRDVANPDSEAQARDVETVLAELGVTLDEGKTVVEVWNKVDLLSEDDREIVEGQARRNDASAVSAVTGEGCEALLRRIAGLIDDSPPVEVSLAAQDGQALAWIYRNGRVLSRYDGPGGEVTLVARLDAQALGRFERQFPGAQVSAAVDLEHHHHHH | soluble
4 | MIHTYEEAIGWIHSRLKFGIKPGLERMRWMLEELGNPERHIKCVHLAGTNGKGSTLTYMRYMLEDAKYKVGTFTSPYIETFNERISVNGTPIADEEITELVKMVKPVVEKLDETDLGEATEFEIITVMAICYFGKVNFCDVVLFETGLGGRFDSTNVIHPVLTIITNIGHDHMHILGNTLGEIAYEKAGIIKSGVPVITGVQDEEALQVIQKVAKENRANLYEMGNHFTALHKQSSENGEQFDFTCPFASFEDVRIAMKGSHQVGNAALALMAVMYVKTYLSFLIEEEEIRTGLQEAYWVGRFEKLQSNPDIIIDGAHNPEGIESLVKTVESHYKDKNVIVLFTALGDKQLHNMVGQLETIADEIIFTTFAFDRAISAGELASYAKKESKLVFENWKEAIDTKVEMIGENDVFIITGSLYFISEVRKYIREKN | not soluble
5 | MIIDDIINKIKSSNKIAISFHISPDGDSIGSSLGLLNGLRSIGKETYILSKEVVPESFEFLNFAREIDGNHFEVEDNTDLLITLDCGNIERLNFDTSDMISEDKKYTVINIDHHVTNDSFGDLNYINTKAASVGEIVYDLLSKMNISIDRTIAACLYTSILTDTGSFRFSNTTLNTHVVAGNLISTGLDFSEIHRKIFDNKKFEALKLQALVLNDMYLTFNNKLCVMKVTHDFIEKANAEDVDTGDLVSLGLKVNTAEVCMLLKEKDDCIKVSLRSKSYVDVRKIAEKFGGGGHIRAAGLSINSNILDAEKMILSEIQGELLEHHHHHH | not soluble
6 | MIILKLEDSWGFQISKIAQEMDSQFSKKLTKYDIGSREYGILLTIHQYALLTQLKIGELNKVDRTTIGQLVDLLERKDFVARQKNPKDRRQNLLVLTKTGRSLAEEMWQEMKEIEKDVLKHLSAKQKETLLTMVKAIRKGELN | not soluble
7 | MIILQGNKLERSFSGDVLFQNISLQVDERDRIALVGPNGAGKSTLLKLLVGEETPTSGEVNTKKDLTLSYLAQNSRFESDQTIYEEMLKVFEALRQDEKRLRQMEMDMATVSGQVLTRLMTDYDLLTEHFRQQGGFTYESDIKAILNGFKFDESMWQMTIAELSGGQNTRLALAKMLLEKPELLVLDEPTNHLDIETIAWLENYLANYQGALIIVSHDRYFLDKVATVTLDLTPNGLDRYSGNYSRFMALKAEKLVAEEKQFDKQQKEIAKLEDFVQKNIVRASTTKRAQARRKQLEKIERLDKPTGGRKSAHMTFHAEKPSGNVVLRVEEAAIGYGDQVLSEPINVDINKLDAIAVVGPNGIGKSTLIKSIIGQLPLLKGQLKYGANVETGYYDQTQSHLTSSNTVLEELWQDFSTTPEVDIRNRLGAFLFSGDDVKKSVAMLSGGEKARLLLAKLSMENNNFLVLDEPTNHLDIDSKEVLENALIDFDGTLLFVSHDRYFINRLATKVLEITENGSTLYLGDYDYYLEKKAELEELARLAAGETVEETKEASATDYQLQKANQKERRRLTRRYEEIEARLETIEERIGAIQEDMHASNDTAQLIAWQKEWDQLDQEQEALMEEWETIAEQIES | not soluble
8 | MIISEFDRNNPVLKDQLSDLLRLTWPEEYGDSSAEEVEEMMNPERIAVAAVDQDELVGFIGAIPQYGITGWELHPLVVESSRRKNQIGTRLVNYLEKEVASRGGITIYLGTDDLDHGTTLSQTDLYEHTFDKVASIQNLREHPYEFYEKLGYKIVGVLPNANGWDKPDIWMAKTIIPRPD | soluble
9 | MIKAIFTRQKNGQLSSVTLTGHAGSGKHGFDIVCASVSTLAINFVNSLEVLADCQALVDLNDVEGGYMAITIPPHDNKEEVQLLFESFLLGMTSLAKDSSKFVNTQVI | not soluble
10 | MIKGIGLDMIDLERVKQVVEKNPRFIERVLTEKEIKQFEKYEGNRKIEFLAGRFAAKEAYAKANGTGFGKHLSFTDVEILQVEDGRPHVTLPVKSGENVFVSITHTARSAAAQVIIEI | not soluble
11 | MIKGSCLCGDIRYTTEAAPQGASMCHCGQCRRQSGGVWSSAFVPEADLTITGPVSWFAASDTAKRGFCARCGSFLFWKANDEDTISFSLGSVDGPTGLRLTKHIFVAGKGDYYDIADDAPHKD | not soluble
12 | MIKILQTKSGVTKFQVLIEIAAHQPNVRQKEIAAKIGITPQAVSEYIKELVNDGLIVTEGRVRYRITKEGVEWVLENATEMKQYARFVMEDIISHVSTWTAITREEVKEGQQVYLKMDHGLLYVSSREVTGASGAIISDAAEGEDVGVTSLKGLIDLENATITICKVPRVERGGSRKVDLERLKMLADAKPYIAAIGVESLIALRKIGISPNVMFGTNESVIEAAYHGLSSLVVSVDEQVSALLNRLETENLEYELVDLTVE | not soluble
13 | MIKNLITQQEGKTLEFKRDLSSPKSLLKSIVAFANTAGGHLIIGVNDERQIIGVEHPLDEEERLCNLIADSISPRLIPSIELVTLNNKTLLVIEVFVSNTGPHWINSEGSTQGIYVRLGSTNRQADQELITELHRRSEGVNFDEMPMPQLSVDDVDITKAQELFSDIKSLNEKNLLTLKLITSHQGKLVPTKGAILLFGKERNTYFPDAWVQCGRFIGKDKSRIFDHVDIYDYLPDAVESIMMFLKKHALRGADFSAVQRKDIWSIPLVMLREAVINALVHTDYSQRGAPIRISFFDDRIEIENPGILLPGLTIEDMRQGISKIRNHVIARVFRELNLIEQWGSGVSRIYSEAIEQKLQEPEIIEIGMRIRFIIYLAQGIPIDSTFDKRDKQLESRLESRLESRLESKLAARVIQVLQNGEAGKIQIARSLGHQTVSGELHKQIKQLLKLEIIEMTIPDKPNSRLQKYRLTNKGIDLINIIQRELAAALEHHHHHH | not soluble
14 | MIKQDVICYEKEDVVKRNNINITGGGEKTVLLAHGFGCDQNMWRFMLPELEKQFTVIVFDYVGSGQSDLESFSTKRYSSLEGYAKDVEEILVALDLVNVSIIGHSVSSIIAGIASTHVGDRISDITMICPSPCFMNFPPDYVGGFERDDLEELINLMDKNYIGWANYLAPLVMGASHSSELIGELSGSFCTTDPIVAKTFAKATFFSDYRSLLEDISTPALIFQSAKDSLASPEVGQYMAENIPNSQLELIQAEGHCLHMTDAGLITPLLIHFIQNNQTRA | soluble
15 | MIKRKLQDLAVCCSYQVDFLHEKKHSVKEFKRKYEVLDEIGRGGFGIVYEATTRQDGQQPVAVKFVQHKHVRSWTMTCRQLIPSEVCHLETCEDIPGVIKILDWFANSKGFLIVMERPANCMDLFDMVSVHGPLNEDMGKFIFKQVITTVFNMYSKHGLLHRDIKDENLIVNMNTGEVKLVDFGATAYAEKATKKEFQGTRSYCPPEWFRDQLYLPLEATSWSLGVLLFILLTGKLPFRNEIQICLGNVKFPPDLSKEVCQLVKSCLTTSTSARASLAQIAAHPWMETDKPFFGGDLTFEEALMEIKNPPVVIEDKEAEEEDNDLNDVVILTRSRESRTDLDAESICTMVTAVEDRYEPSIAVKELEQEEIVETGETTNLMRSESRYDNISSSSFCDYVSLVSSSYDDQFTSTSDIYQSACEVFPHTGSSSSLSRSMGAVKSASAYNLVRMRKKSSIFKSFDTELDPVSENDHQPLIPETSSATCQSTYSNDEDVTISEKVVSPAQPLPPPLSPRKGSLQCFESVPRSRDSVIRMSRHRPLQFAIDSSSPPPALAIFQVSPTASVG | not soluble
16 | MIKRTLLLAMLPILAHAEELPAPVKAIEKQGITILKSFEAPGGMKGYLGKYQDMGVTIYLTPDGKHAISGYMYNEKGENLSNALIEKEIYAPAGREMWQKMEKASWILDGKKDAPVVLYVFADPFCPYCKQFWQQARPWVESGKVQLRTLLVGVIKPESPATAAAILAAKDPAKTWHDYEASAGKMKLEVPASIPPAQMKVINQNQQLMDDLGANATPAIYYMNKDKILQQVVGLPEKAQLDAMMGQP | not soluble
17 | MIKWPWKAQEITQNEDWPWDDALAIPLLVNLTAQEQARLIALAERFLQQKRLVALQGFELDSLKSARIALIFCLPILELGIEWLDGFHEVLIYPAPFVVDDEWEDDIGLVHSQRVVQSGQSWQQGPIILNWLDIQDSFDASGFNLIIHEVAHKLDMRNGDRASGIPFIPLRDVAGWEHDLHAAMNNIQDEIDLVGESAASIDAYAATDPAECFAVLSEYFFSAPELFAPRFPALWQRFCQFYRQDPSQRLRVSAAEGDYGEESEH | not soluble
18 | MILERVEIVGFRGINRLSLMLEQNNVLIGENAWGKSSLLDALTLLLSPESDLYHFERDDFWFPPGDINGREHHLHIILTFRESLPGRHRVRRYRPLEACWTPCTDGYHRIFYRLEGESAEDGSVMTLRSFLDKDGHPIDVEDINDQARHLVRLMPVLRLRDARFMRRIRNGTVPNVPNVEVTARQLDFLARELSSHPQNLSDGQIRQGLSAMVQLLEHYFSEQGAGQARYRLMRRRASNEQRSWRYLDIINRMIDRPGGRSYRVILLGLFATLLQAKGTLRLDKDARPLLLIEDPETRLHPIMLSVAWHLLNLLPLQRIATTNSGELLSLTPVEHVCRLVRESSRVAAWRLGPSGLSTEDSRRISFHIRFNRPSSLFARCWLLVEGETETWVINELARQCGHHFDAEGIKVIEFAQSGLKPLVKFARRMGIEWHVLVDGDEAGKKYAATVRSLLNNDREAEREHLTALPALDMEHFMYRQGFSDVFHRVAQIPENVPMNLRKIISKAIHRSSKPDLAIEVAMEAGRRGVDSVPTLLKKMFSRVLWLARGRAD | not soluble
19 | MILFDFKDLSAATSWYGVNDTVMGGLSRSKLTISPLGYGIFSGHVSLANGGGFASVRCEFEHVNVAEFTGIYLDLDSDRSKQYKVNLKDADTPQSTVYQAIMPAPTHQTFGLSGASAIHWQRIEIPFTNFHPQCRGKPIAGAAIDLRRLTSIGLVIGAQQSGDFALKIKSIGCYLEHHHHHH | soluble
20 | MILGPDGKPIKKPETSEIARVLHTFSAFMKSLPNPDIILKKTGKTAEIFEEMKTDAHVWAELTKRKSGVLSKDWDILPASNDRRDLEIAAFVKETFERLNFDQDMRTKTCGKCSMPCSRAGTCTN | not soluble
